Laboratory results from patent EP2225268B1.

Tests used:
[1] = target: Native NGAL purchased from Diagnostics Development (Uppsala, Sweden), non-reduced (UniProt P80188); experiment: … sandwich CMIA, capture HYB 211-01, detection acridinium-HYB 211-02; NGAL 5 ng/mL
[2] = target: Wild-type recombinant human NGAL dimer calibrators treated with DTT (human) (UniProt P80188); experiment: as above
[3] = target: Wild-type recombinant human NGAL dimer expressed in CHO cells (human) (UniProt P80188); experiment: as above
[4] = target: Wild-type recombinant human NGAL monomer expressed in CHO cells (human) (UniProt P80188); experiment: as above
[5] = target: Native NGAL purchased from Diagnostics Development (Uppsala, Sweden), non-reduced (UniProt P80188); experiment: … sandwich CMIA, capture HYB 211-01, detection acridinium-HYB 211-02; NGAL 50 ng/mL
[6] = target: Wild-type recombinant human NGAL dimer calibrators treated with DTT (human) (UniProt P80188); experiment: as above
[7] = target: Wild-type recombinant human NGAL dimer expressed in CHO cells (human) (UniProt P80188); experiment: as above
[8] = target: Wild-type recombinant human NGAL monomer expressed in CHO cells (human) (UniProt P80188); experiment: as above
[9] = target: Native NGAL purchased from Diagnostics Development (Uppsala, Sweden), non-reduced (UniProt P80188); experiment: … sandwich CMIA, capture HYB 211-01, detection acridinium-HYB 211-02; non-reduced control sample
[10] = target: Wild-type recombinant human NGAL dimer calibrators treated with DTT (human) (UniProt P80188); experiment: … sandwich CMIA, capture HYB 211-01, detection acridinium-HYB 211-02; calibrator B, NGAL 5 ng/mL
[11] = target: Wild-type recombinant human NGAL dimer expressed in CHO cells (human) (UniProt P80188); experiment: as above
[12] = target: Wild-type recombinant human NGAL monomer expressed in CHO cells (human) (UniProt P80188); experiment: as above
[13] = target: Native NGAL (plus DTT - reduced) (UniProt P80188); experiment: … sandwich CMIA, capture HYB 211-01, detection acridinium-HYB 211-02; same sample reduced with DTT
[14] = target: Wild-type recombinant human NGAL dimer calibrators treated with DTT (human) (UniProt P80188); experiment: … sandwich CMIA, capture HYB 211-01, detection acridinium-HYB 211-02; calibrator D, NGAL 250 ng/mL
[15] = target: Wild-type recombinant human NGAL dimer expressed in CHO cells (human) (UniProt P80188); experiment: as above
[16] = target: Wild-type recombinant human NGAL monomer expressed in CHO cells (human) (UniProt P80188); experiment: as above
[17] = target: Wild-type recombinant human NGAL dimer expressed in CHO cells (human) (UniProt P80188); experiment: … sandwich CMIA, capture 1-2322-455, detection acridinium-1-903-430; NGAL 50 ng/mL
[18] = target: Wild-type recombinant human NGAL monomer expressed in CHO cells (human) (UniProt P80188); experiment: as above
[19] = target: Wild-type recombinant human NGAL monomer expressed in CHO cells (human) (UniProt P80188); experiment: … sandwich CMIA, capture 1-2322-455, detection acridinium-1-903-430; monomer calibrator plus TCEP; NGAL 5 ng/mL
[20] = target: Wild-type recombinant human NGAL dimer expressed in CHO cells (human) (UniProt P80188); experiment: … sandwich CMIA, capture 1-2322-455, detection acridinium-1-903-430; curve fit with monomer calibrators; target 5 ng/mL
[21] = target: Wild-type recombinant human NGAL monomer expressed in CHO cells (human) (UniProt P80188); experiment: as above
[22] = target: Wild-type recombinant human NGAL dimer calibrators with TCEP in the reaction mixture (human) (UniProt P80188); experiment: … sandwich CMIA, capture 1-2322-455, detection acridinium-1-903-430; TCEP in reaction; curve fit with monomer calibrators; target 5 ng/mL
[23] = target: Wild-type recombinant human NGAL dimer calibrators with TCEP in the reaction mixture (human) (UniProt P80188); experiment: … sandwich CMIA, capture 1-2322-455, detection acridinium-1-903-430; TCEP in reaction; curve fit with monomer calibrators; target 250 ng/mL
[24] = target: Wild-type recombinant human NGAL dimer calibrators with TCEP in the reaction mixture (human) (UniProt P80188); experiment: … sandwich CMIA, capture 1-2322-455, detection acridinium-1-903-430; TCEP in reaction; curve fit with monomer calibrators; target 600 ng/mL
[25] = target: Wild-type recombinant human NGAL monomer expressed in CHO cells (human) (UniProt P80188); experiment: … sandwich CMIA, capture 1-2322-455, detection acridinium-1-903-430; monomer calibrator plus TCEP; curve fit with monomer calibrators; target 5 ng/mL
[26] = target: Wild-type recombinant human NGAL monomer expressed in CHO cells (human) (UniProt P80188); experiment: … sandwich CMIA, capture 1-2322-455, detection acridinium-1-903-430; monomer calibrator plus TCEP; curve fit with monomer calibrators; target 250 ng/mL

“anti-NGAL antibody HYB 211-01 from AntibodyShop A/S, Gentofte, Denmark” gave an RLUs [1] of 15300 RLUs, an RLUs [2] of 11400 RLUs and an RLUs [3] of 4050 RLUs. For the same molecule, the RLUs [4] was 12000 RLUs, the RLUs [5] was 151000 RLUs and the RLUs [6] was 101000 RLUs. For the same molecule, the RLUs [7] was 31500 RLUs, the RLUs [8] was 101000 RLUs and the NGAL concentration detected [9] was 13.7 ng/mL. It also gave an RLUs [10] of 11400 RLUs, an RLUs [11] of 4050 RLUs and an RLUs [12] of 12000 RLUs. For the same molecule, the NGAL concentration detected [13] was 23.8 ng/mL, the RLUs [14] was 378000 RLUs and the RLUs [15] was 142000 RLUs. It also gave an RLUs [16] of 396000 RLUs.

B1: antibody produced by murine hybridoma cell line 1-2322-455 having ATCC Accession No. PTA-8024 (antibody, V domains shown)
VH: EVQLVESGGGLVQPGGSLKLSCAASGFTFNNYYMSWVRQTPERRLEWVAYISSSGGSTYYSDSVRGRFTISRDTARNTLYLQMTSLKSEDTAMYYCARHFGDYSYFDYWGQGTTLTVSS
VL: DIQMTQSPASLSASVGETVTITCRASENFYSYLAWYQQKQGKSPQLLVYNAKTLAEGVPSRFSGSGSGTQFSLKINSLQPEDFGTYYCQHHYDIPLTFGAGTKLELKR
B1 was tested, and the RLUs [17] was 76800 RLUs, the RLUs [18] was 240000 RLUs and the RLUs [19] was 29300 RLUs. It also gave a Curve Fit Results [20] of 1.2 ng/mL, a Curve Fit Results [21] of 4.7 ng/mL and a Curve Fit Results [22] of 2.2 ng/mL. It also gave a Curve Fit Results [23] of 126 ng/mL, a Curve Fit Results [24] of 292 ng/mL and a Curve Fit Results [25] of 4.6 ng/mL. For the same molecule, the Curve Fit Results [26] was 266 ng/mL.
